T1: human connexin36 (Cx36) (human, UniProt Q9UKL4 1-321)
T1 construct: whole, on cells; Hemichannel expressed in HEK 293FT cells for FETCH; also called GJD2; not shown: C-terminal fluorescent protein fusion (mEmerald or RFP670 in FETCH)
T1 sequence (looked up): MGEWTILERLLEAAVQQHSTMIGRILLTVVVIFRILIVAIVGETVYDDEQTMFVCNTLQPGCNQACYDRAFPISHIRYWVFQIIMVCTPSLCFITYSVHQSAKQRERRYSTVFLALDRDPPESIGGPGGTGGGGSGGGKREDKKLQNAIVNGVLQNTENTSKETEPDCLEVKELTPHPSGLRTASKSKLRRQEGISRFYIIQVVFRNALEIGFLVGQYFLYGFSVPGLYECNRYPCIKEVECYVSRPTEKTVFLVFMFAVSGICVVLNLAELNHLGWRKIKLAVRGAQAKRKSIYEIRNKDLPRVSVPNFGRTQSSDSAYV


Key:
homotypic FETCH screen = target: the molecule itself; experiment: homotypic FETCH screen
Description: (§1) Complete FETCH methodology is outlined in Ransey et. al. 2021 (Ransey E, et al. (2021) BioRxiv). Briefly, replica multi-well plates with HEK 293FT cells were transfected with either of the two connexin proteins being evaluated for docking. Following a transfection incubation period, experimental counterparts were combined, replated, and further incubated for about 20 hr to about 24 hrs, allowing cells to make contacts and potentially generate connexosomes. Co-plated samples were trypsinized, fixed in suspension and analyzed via flow cytometry. Flow cytometry data was processed with two selection gates prior to their fluorescence evaluation. First, putative HEK cells were identified by evaluating sample forward vs. side scatter area. Next, single cells were identified as the putative cells that maintained a linear correlation of forward scatter height to forward scatter area. Finally, the dual fluorescence (mEmerald vs. RFP670) profiles of each sample was generated, and the FETCH score was defined as the proportion of dual-labeled fluorescent cells that develop in a co-plated sample.
For screening analysis, five FETCH replicates were obtained for each condition (mutation). These scores were benchmarked against scores for Cx36 and Cx45 (FETCH=1.2±0.1%, n=54 replicates). To quantitatively determine whether a connexin pair docked, FETCH scores were determined for the dual fluorescence of cells under conditions where docking was not anticipated. These conditions included pairs of connexins previously established to not show docking: (i) Cx36 and Cx45 (FETCH=0.7±0.0%, n=59 replicates), (ii) homotypic Cx23 (FETCH=0.9±0.4%, n=6 previously collected replicates (Ransey E, et al. (2021) BioRxiv), and (iii) Cx36 and Cx43 (FETCH=1.2±0.2%, n=10 previously collected replicates (Ransey E, et al. (2021) BioRxiv), and under conditions for which cells were transfected with cytoplasmic fluorophores rather than tagged connexins (FETCH=4.4±0.6%, n=17 previously collected replicates (Ransey E, et al. (2021) BioRxiv).

human connexin36 (Cx36) = target: T1, human connexin36 (Cx36); experiment: FETCH (flow cytometry, % dual-labelled HEK 293FT cells), heterotypic
Description: as §1

human connexin43 (Cx43) [1] = target: T2, human connexin43 (Cx43) (human, UniProt P17302 2-382); experiment: heterotypic FETCH
T2 construct: whole, on cells; Hemichannel expressed in HEK 293FT cells for FETCH; also called GJA1; not shown: C-terminal fluorescent protein fusion (mEmerald or RFP670 in FETCH)
Description: as §1

human connexin43 (Cx43) [2] = target: T2, human connexin43 (Cx43); experiment: FETCH (flow cytometry, % dual-labelled HEK 293FT cells), heterotypic, n=6
Description: as §1

T2 sequence (P17302 2-382): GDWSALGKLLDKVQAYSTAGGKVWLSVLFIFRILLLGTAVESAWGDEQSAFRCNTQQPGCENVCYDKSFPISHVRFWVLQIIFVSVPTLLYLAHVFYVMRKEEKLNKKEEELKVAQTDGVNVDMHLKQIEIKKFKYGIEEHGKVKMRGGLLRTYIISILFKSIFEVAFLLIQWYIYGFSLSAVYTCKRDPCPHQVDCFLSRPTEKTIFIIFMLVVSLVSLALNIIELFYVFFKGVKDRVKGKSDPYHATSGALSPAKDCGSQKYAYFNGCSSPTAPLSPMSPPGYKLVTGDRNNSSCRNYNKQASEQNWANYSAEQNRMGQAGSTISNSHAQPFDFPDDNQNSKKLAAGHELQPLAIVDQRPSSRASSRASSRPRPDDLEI

Row | Binder | binding result (homotypic FETCH screen) | other results
1 | Cx34.7 mutant Y78S (Morone americana) (other, Extracellular loop mutant of the screening library; also called Cx34.7 Y78S; not shown: C-terminal fluorescent protein fusion (mEmerald or RFP670 in FETCH)) MGEWTILERLLEAAVQQHSTMIGRILLTVVVIFRILIVAIVGETVYEDEQAMFICNTLQPGCNQACYDKAFPISHIRSWVFQIILVCTPSLCFITYSVHQSAKQKDRRYSFLYPIMERDYGGRDGARKLRNINGILVQHGGDGGGGKEEPDCLEVKEIPNAPRGLTHGKSSKVRRQEGISRFYIIQVVFRNALEIGFLAGQYFLYGFSVPGIFECDRYPCLKEVECYVSRPTEKTVFLVFMFAVSGICVVLNLAELNHLGWRKIKAAIRGVQARRKSICEIRKKDMAHLSQPPNLGRTQSSESAYV | no binding | –
2 | Cx34.7 mutant Y78V (Morone americana) (other, Extracellular loop mutant of the screening library; also called Cx34.7 Y78V; not shown: C-terminal fluorescent protein fusion (mEmerald or RFP670 in FETCH)) MGEWTILERLLEAAVQQHSTMIGRILLTVVVIFRILIVAIVGETVYEDEQAMFICNTLQPGCNQACYDKAFPISHIRVWVFQIILVCTPSLCFITYSVHQSAKQKDRRYSFLYPIMERDYGGRDGARKLRNINGILVQHGGDGGGGKEEPDCLEVKEIPNAPRGLTHGKSSKVRRQEGISRFYIIQVVFRNALEIGFLAGQYFLYGFSVPGIFECDRYPCLKEVECYVSRPTEKTVFLVFMFAVSGICVVLNLAELNHLGWRKIKAAIRGVQARRKSICEIRKKDMAHLSQPPNLGRTQSSESAYV | no binding | –
3 | Cx34.7 mutant E225K (Morone americana) (other, Extracellular loop mutant of the screening library; also called Cx34.7 E225K; not shown: C-terminal fluorescent protein fusion (mEmerald or RFP670 in FETCH)) MGEWTILERLLEAAVQQHSTMIGRILLTVVVIFRILIVAIVGETVYEDEQAMFICNTLQPGCNQACYDKAFPISHIRYWVFQIILVCTPSLCFITYSVHQSAKQKDRRYSFLYPIMERDYGGRDGARKLRNINGILVQHGGDGGGGKEEPDCLEVKEIPNAPRGLTHGKSSKVRRQEGISRFYIIQVVFRNALEIGFLAGQYFLYGFSVPGIFECDRYPCLKEVKCYVSRPTEKTVFLVFMFAVSGICVVLNLAELNHLGWRKIKAAIRGVQARRKSICEIRKKDMAHLSQPPNLGRTQSSESAYV | no binding | –
4 | Cx34.7 mutant E225R (Morone americana) (other, Extracellular loop mutant of the screening library; also called Cx34.7 E225R; not shown: C-terminal fluorescent protein fusion (mEmerald or RFP670 in FETCH)) MGEWTILERLLEAAVQQHSTMIGRILLTVVVIFRILIVAIVGETVYEDEQAMFICNTLQPGCNQACYDKAFPISHIRYWVFQIILVCTPSLCFITYSVHQSAKQKDRRYSFLYPIMERDYGGRDGARKLRNINGILVQHGGDGGGGKEEPDCLEVKEIPNAPRGLTHGKSSKVRRQEGISRFYIIQVVFRNALEIGFLAGQYFLYGFSVPGIFECDRYPCLKEVRCYVSRPTEKTVFLVFMFAVSGICVVLNLAELNHLGWRKIKAAIRGVQARRKSICEIRKKDMAHLSQPPNLGRTQSSESAYV | no binding | –
5 | Cx34.7 mutant L238Y (Morone americana) (other, Extracellular loop mutant of the screening library; also called Cx34.7 L238Y; not shown: C-terminal fluorescent protein fusion (mEmerald or RFP670 in FETCH)) MGEWTILERLLEAAVQQHSTMIGRILLTVVVIFRILIVAIVGETVYEDEQAMFICNTLQPGCNQACYDKAFPISHIRYWVFQIILVCTPSLCFITYSVHQSAKQKDRRYSFLYPIMERDYGGRDGARKLRNINGILVQHGGDGGGGKEEPDCLEVKEIPNAPRGLTHGKSSKVRRQEGISRFYIIQVVFRNALEIGFLAGQYFLYGFSVPGIFECDRYPCLKEVECYVSRPTEKTVFYVFMFAVSGICVVLNLAELNHLGWRKIKAAIRGVQARRKSICEIRKKDMAHLSQPPNLGRTQSSESAYV | no binding | –
6 | Cx34.7 mutant Y78T (Morone americana) (other, Extracellular loop mutant of the screening library; also called Cx34.7 Y78T; not shown: C-terminal fluorescent protein fusion (mEmerald or RFP670 in FETCH)) MGEWTILERLLEAAVQQHSTMIGRILLTVVVIFRILIVAIVGETVYEDEQAMFICNTLQPGCNQACYDKAFPISHIRTWVFQIILVCTPSLCFITYSVHQSAKQKDRRYSFLYPIMERDYGGRDGARKLRNINGILVQHGGDGGGGKEEPDCLEVKEIPNAPRGLTHGKSSKVRRQEGISRFYIIQVVFRNALEIGFLAGQYFLYGFSVPGIFECDRYPCLKEVECYVSRPTEKTVFLVFMFAVSGICVVLNLAELNHLGWRKIKAAIRGVQARRKSICEIRKKDMAHLSQPPNLGRTQSSESAYV | no binding | –
7 | Wild-type Connexin35 (Cx35) of Morone americana (other, Connexin hemichannel (hexamer) expressed in HEK 293FT cells; In C. elegans it was expressed as GFP or mCherry fusion; also called Cx35WT; not shown: C-terminal fluorescent protein fusion (mEmerald or RFP670 in FETCH)) MGEWTILERLLEAAVQQHSTMIGRILLTVVVIFRILIVAIVGETVYDDEQTMFVCNTLQPGCNQACYDKAFPISHIRYWVFQIIMVCTPSLCFITYSVHQSAKQKERRYSTVYLTLDKDQDSLKRDESKKIKNTIVNGVLQNTENSTKEAEPDCLEVKEIPNSAMRTTKSKMRRQEGISRFYIIQVVFRNALEIGFLVGQYFLYGFNVPSVYECDRYPCIKDVECYVSRPTEKTVFLVFMFAVSGFCVVLNLAELNHLGWRKIKTAVRGVQARRKSIYEIRNKDLPRMSVPNFGRTQSSDSAYV | – | FETCH score (human connexin36 (Cx36)): 18%
8 | Cx35 mutant L237Y (Morone americana) (other, Extracellular loop mutant of the screening library; also called Cx35 L237Y; not shown: C-terminal fluorescent protein fusion (mEmerald or RFP670 in FETCH)) MGEWTILERLLEAAVQQHSTMIGRILLTVVVIFRILIVAIVGETVYDDEQTMFVCNTLQPGCNQACYDKAFPISHIRYWVFQIIMVCTPSLCFITYSVHQSAKQKERRYSTVYLTLDKDQDSLKRDESKKIKNTIVNGVLQNTENSTKEAEPDCLEVKEIPNSAMRTTKSKMRRQEGISRFYIIQVVFRNALEIGFLVGQYFLYGFNVPSVYECDRYPCIKDVECYVSRPTEKTVFYVFMFAVSGFCVVLNLAELNHLGWRKIKTAVRGVQARRKSIYEIRNKDLPRMSVPNFGRTQSSDSAYV | no binding | –
9 | Cx35E224H (Morone americana Cx35 mutant E224H) (other, Extracellular loop mutant of the screening library; not shown: C-terminal fluorescent protein fusion (mEmerald or RFP670 in FETCH)) MGEWTILERLLEAAVQQHSTMIGRILLTVVVIFRILIVAIVGETVYDDEQTMFVCNTLQPGCNQACYDKAFPISHIRYWVFQIIMVCTPSLCFITYSVHQSAKQKERRYSTVYLTLDKDQDSLKRDESKKIKNTIVNGVLQNTENSTKEAEPDCLEVKEIPNSAMRTTKSKMRRQEGISRFYIIQVVFRNALEIGFLVGQYFLYGFNVPSVYECDRYPCIKDVHCYVSRPTEKTVFLVFMFAVSGFCVVLNLAELNHLGWRKIKTAVRGVQARRKSIYEIRNKDLPRMSVPNFGRTQSSDSAYV | no binding | binding result (human connexin43 (Cx43) [1]): no binding; FETCH score (human connexin36 (Cx36)): 5.9%; FETCH score (human connexin43 (Cx43) [2]): 0.4%
10 | Cx35 mutant Y78V (Morone americana) (other, Extracellular loop mutant of the screening library; also called Cx35 Y78V; not shown: C-terminal fluorescent protein fusion (mEmerald or RFP670 in FETCH)) MGEWTILERLLEAAVQQHSTMIGRILLTVVVIFRILIVAIVGETVYDDEQTMFVCNTLQPGCNQACYDKAFPISHIRVWVFQIIMVCTPSLCFITYSVHQSAKQKERRYSTVYLTLDKDQDSLKRDESKKIKNTIVNGVLQNTENSTKEAEPDCLEVKEIPNSAMRTTKSKMRRQEGISRFYIIQVVFRNALEIGFLVGQYFLYGFNVPSVYECDRYPCIKDVECYVSRPTEKTVFLVFMFAVSGFCVVLNLAELNHLGWRKIKTAVRGVQARRKSIYEIRNKDLPRMSVPNFGRTQSSDSAYV | no binding | –
11 | Cx35 mutant N56E (Morone americana) (other, Extracellular loop mutant of the screening library; also called Cx35 N56E; not shown: C-terminal fluorescent protein fusion (mEmerald or RFP670 in FETCH)) MGEWTILERLLEAAVQQHSTMIGRILLTVVVIFRILIVAIVGETVYDDEQTMFVCETLQPGCNQACYDKAFPISHIRYWVFQIIMVCTPSLCFITYSVHQSAKQKERRYSTVYLTLDKDQDSLKRDESKKIKNTIVNGVLQNTENSTKEAEPDCLEVKEIPNSAMRTTKSKMRRQEGISRFYIIQVVFRNALEIGFLVGQYFLYGFNVPSVYECDRYPCIKDVECYVSRPTEKTVFLVFMFAVSGFCVVLNLAELNHLGWRKIKTAVRGVQARRKSIYEIRNKDLPRMSVPNFGRTQSSDSAYV | no binding | –
12 | Cx35 mutant Y78S (Morone americana) (other, Extracellular loop mutant of the screening library; also called Cx35 Y78S; not shown: C-terminal fluorescent protein fusion (mEmerald or RFP670 in FETCH)) MGEWTILERLLEAAVQQHSTMIGRILLTVVVIFRILIVAIVGETVYDDEQTMFVCNTLQPGCNQACYDKAFPISHIRSWVFQIIMVCTPSLCFITYSVHQSAKQKERRYSTVYLTLDKDQDSLKRDESKKIKNTIVNGVLQNTENSTKEAEPDCLEVKEIPNSAMRTTKSKMRRQEGISRFYIIQVVFRNALEIGFLVGQYFLYGFNVPSVYECDRYPCIKDVECYVSRPTEKTVFLVFMFAVSGFCVVLNLAELNHLGWRKIKTAVRGVQARRKSIYEIRNKDLPRMSVPNFGRTQSSDSAYV | no binding | –
13 | Cx35 mutant Y78T (Morone americana) (other, Extracellular loop mutant of the screening library; also called Cx35 Y78T; not shown: C-terminal fluorescent protein fusion (mEmerald or RFP670 in FETCH)) MGEWTILERLLEAAVQQHSTMIGRILLTVVVIFRILIVAIVGETVYDDEQTMFVCNTLQPGCNQACYDKAFPISHIRTWVFQIIMVCTPSLCFITYSVHQSAKQKERRYSTVYLTLDKDQDSLKRDESKKIKNTIVNGVLQNTENSTKEAEPDCLEVKEIPNSAMRTTKSKMRRQEGISRFYIIQVVFRNALEIGFLVGQYFLYGFNVPSVYECDRYPCIKDVECYVSRPTEKTVFLVFMFAVSGFCVVLNLAELNHLGWRKIKTAVRGVQARRKSIYEIRNKDLPRMSVPNFGRTQSSDSAYV | no binding | –
